Data taken from article PMC8948881, “Molecular Properties of Human Guanylate Cyclase-Activating Protein 3 (GCAP3) and Its Possible Association with Retinitis Pigmentosa” (International Journal of Molecular Sciences, 2022).

T1: GC1 (GC-E, ROS-GC1, RetGC1) (Homo sapiens, UniProt Q02846)
T1 construct: gene GUCY2D
T1 sequence (Q02846 52-1103): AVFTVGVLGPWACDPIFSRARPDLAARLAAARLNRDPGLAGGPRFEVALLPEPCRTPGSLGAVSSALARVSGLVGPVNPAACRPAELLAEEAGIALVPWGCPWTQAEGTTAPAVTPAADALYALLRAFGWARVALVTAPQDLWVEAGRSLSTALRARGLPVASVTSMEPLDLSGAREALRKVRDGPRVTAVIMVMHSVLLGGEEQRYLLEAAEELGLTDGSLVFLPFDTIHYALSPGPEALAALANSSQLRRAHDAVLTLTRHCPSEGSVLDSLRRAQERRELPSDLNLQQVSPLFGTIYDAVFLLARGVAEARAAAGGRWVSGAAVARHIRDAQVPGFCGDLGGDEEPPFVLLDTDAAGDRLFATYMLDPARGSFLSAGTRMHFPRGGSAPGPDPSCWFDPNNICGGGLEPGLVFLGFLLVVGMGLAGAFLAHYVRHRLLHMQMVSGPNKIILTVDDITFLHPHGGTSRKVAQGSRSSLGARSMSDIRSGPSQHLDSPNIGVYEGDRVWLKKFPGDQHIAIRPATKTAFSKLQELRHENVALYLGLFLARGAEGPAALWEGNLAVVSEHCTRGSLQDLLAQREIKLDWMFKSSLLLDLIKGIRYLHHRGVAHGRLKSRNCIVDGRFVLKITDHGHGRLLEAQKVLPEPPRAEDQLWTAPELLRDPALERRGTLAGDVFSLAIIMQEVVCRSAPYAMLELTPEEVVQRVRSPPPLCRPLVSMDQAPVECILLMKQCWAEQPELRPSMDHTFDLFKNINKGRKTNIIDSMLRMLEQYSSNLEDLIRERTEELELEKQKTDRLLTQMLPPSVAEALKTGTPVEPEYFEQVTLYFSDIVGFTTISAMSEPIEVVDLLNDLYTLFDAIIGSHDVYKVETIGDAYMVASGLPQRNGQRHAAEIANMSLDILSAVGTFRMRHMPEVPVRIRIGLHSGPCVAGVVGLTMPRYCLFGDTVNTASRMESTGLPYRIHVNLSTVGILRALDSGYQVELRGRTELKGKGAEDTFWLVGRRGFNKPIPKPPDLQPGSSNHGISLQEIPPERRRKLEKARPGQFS
T1 sequence (O95843 2-209 partner): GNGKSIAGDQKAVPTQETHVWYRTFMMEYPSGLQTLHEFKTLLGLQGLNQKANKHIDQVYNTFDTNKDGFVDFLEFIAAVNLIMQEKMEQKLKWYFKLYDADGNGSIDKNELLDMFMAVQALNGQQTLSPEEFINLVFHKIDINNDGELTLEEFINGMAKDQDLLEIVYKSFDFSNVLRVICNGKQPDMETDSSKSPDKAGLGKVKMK

B1: non-myristoylated wild-type human GCAP3 (guanylate cyclase-activating protein 3) (natural protein, UniProt O95843-1 1-209, looked up)
chain: MGNGKSIAGDQKAVPTQETHVWYRTFMMEYPSGLQTLHEFKTLLGLQGLNQKANKHIDQVYNTFDTNKDGFVDFLEFIAAVNLIMQEKMEQKLKWYFKLYDADGNGSIDKNELLDMFMAVQALNGQQTLSPEEFINLVFHKIDINNDGELTLEEFINGMAKDQDLLEIVYKSFDFSNVLRVICNGKQPDMETDSSKSPDKAGLGKVKMK
notes: Cloned into a plasmid named pET11-E6S; also called nmWT; nmWT GCAP3
B2: non-myristoylated D101H variant of human GCAP3 (natural protein, UniProt O95843-1 1-209, looked up)
chain: MGNGKSIAGDQKAVPTQETHVWYRTFMMEYPSGLQTLHEFKTLLGLQGLNQKANKHIDQVYNTFDTNKDGFVDFLEFIAAVNLIMQEKMEQKLKWYFKLYHADGNGSIDKNELLDMFMAVQALNGQQTLSPEEFINLVFHKIDINNDGELTLEEFINGMAKDQDLLEIVYKSFDFSNVLRVICNGKQPDMETDSSKSPDKAGLGKVKMK
notes: Variant found in a patient with retinitis pigmentosa; Cloned into a plasmid named pET11-E6S; also called nmD101H; nmD101H GCAP3
B3: myristoylated wild-type human GCAP3 (guanylate cyclase-activating protein 3) (natural protein, UniProt O95843-1 1-209, looked up)
chain: MGNGKSIAGDQKAVPTQETHVWYRTFMMEYPSGLQTLHEFKTLLGLQGLNQKANKHIDQVYNTFDTNKDGFVDFLEFIAAVNLIMQEKMEQKLKWYFKLYDADGNGSIDKNELLDMFMAVQALNGQQTLSPEEFINLVFHKIDINNDGELTLEEFINGMAKDQDLLEIVYKSFDFSNVLRVICNGKQPDMETDSSKSPDKAGLGKVKMK
modifications: N-terminal myristoylation (degree of myristoylation 58.35%)
notes: Cloned into a plasmid named pET11-E6S; The sample is a mix of about 58% myristoylated and the rest non-myristoylated protein; also called mWT; mWT GCAP3

What was measured:
[1] = biological target: T1, GC1 (GC-E, ROS-GC1, RetGC1); experiment: cGMP production by reversed-phase HPLC; format: biochemical; details: GC1 membranes, 1 mM free Mg2+, low (<19 nM) or high (~30 µM) Ca2+, pH 7.4; basal and with mGCAP3 or mGCAP1
[2] = biological target: the molecule itself; experiment: SEC; analytical SEC, Superose 12 10/300GL, ~40 µM protein loaded, 20 mM Tris-HCl pH 7.5, 150 mM KCl, 1 mM DTT, 500 µM EGTA (apo), 25 °C; apparent MM from a calibration curve
[3] = biological target: the molecule itself; experiment: SEC; analytical SEC, Superose 12 10/300GL, ~40 µM protein loaded, 20 mM Tris-HCl pH 7.5, 150 mM KCl, 1 mM DTT, 1 mM Mg2+ and 500 µM Ca2+, 25 °C; apparent MM from a calibration curve

| Molecule | stoichiometry N [2] | also measured |
| --- | --- | --- |
| Nc1nc2c(ncn2[C@@H]2O[C@@H]3COP(=O)(O)O[C@H]3[C@H]2O)c(=O)[nH]1 [cGMP] | – | cGMP production by reversed-phase HPLC [1]: The production of cGMP was analyzed by reversed phase HPLC |
| B1 | 2 | – |
| B2 | – | stoichiometry N [3]: 2 |
| B3 | 2 | – |
